Assay results from patent US20020151683A1 (MOGAM BIOTECHNOLOGY RESEARCH INSTITUTE, published 2002).

What follows are binders tested against T1, HLA-A2.1, a human MHC Class I molecule, at the surface of T2 cell (human) (assay: T2 cell MHC stabilisation assay, peptide 1-100 ug/ml, flow cytometry with BB7.2 anti-HLA-A2.1 and FITC anti-mouse Ig).
T1 construct: detected with BB7.2 antibody against HLA-A2.1; also called MHC Class I molecules at the surface of T2 cell
Experimental: Seven different peptides including the peptides as disclosed in Table 1 above which were derived from HBV X protein were synthesized chemically and dissolved in phosphate buffered saline (hereinafter, referred to as “PBS”). In order to investigate whether the peptides can bind to MHC Class I molecules associated with induction of CTL, each peptide was added to T2 cell line in a concentration of 100, 64, 32, 16, 8, 4, 2 and 1 μg/ml, respectively, and reacted at 37° C. for 4 hours. And then, the cells were washed with PBS to remove unreacted peptides, added with BB7.2 antibody against HLA-A2.1, a human MHC Class I molecule, and reacted at 4° C. for 1 hour. The cells were washed with PBS again, added with fluorescein isothiocyanate (FITC)-conjugated anti-mouse immunoglobulin antibody, and reacted at 4° C. for 1 hour. Then, fluorescence of the cells was determined using fluorocytometer (FACScan, BECTON DICKINSON) and the results were shown in FIG. 1.
EIRLKVFVL [X7 peptide derived from HBV X protein (positions 126-134)]: binds. CLFKDWEEL [X6 peptide derived from HBV X protein (positions 115-123)]: binds. HLSLRGLFV [X3 peptide derived from HBV X protein (positions 052-060)]: binds.
